In US20120311746A1:

Biological target: receptors in brush border membrane vesicles produced from Spodoptera frugiperda (fall armyworm, FAW)
Test: competitive displacement of 0.5 nM ^125I Cry1Be (competitor) from FAW BBMV

Cry1Fa protein from Bacillus thuringiensis (from UniProt Q03746 28-605) (ligand)
concentration at which displacement of ^125I Cry1Be is effective: > 100 nM
